Experimental data taken from patent US20250262297A1, “ALLERGY ANTIGEN AND EPITOPE THEREOF” (HOYU CO., LTD., priority 2017, published 2025).
Each block holds one molecule with its values, some of them ahead of it.

System: IgE antibodies from soybean-allergic patients
Experiment: Immunoblotting of two-dimensional electrophoresis pattern of soybean proteins with patient serum
Assay type: binding, human
Details: spot in 2D electrophoresis gel of soybean proteins; patient serum compared with healthy subject serum
Source text: Transfer to membrane was done using the following transfer system and transfer buffer. • Transfer system: XCell SureLock Mini-Cell and XCell II Blot Module (produced by Life Technologies) • Transfer buffer: NuPAGE Transfer Buffer (X20) (produced by Life Technologies), used in a form diluted 20-fold with milliQ water.
To be specific, proteins in the two-dimensional electrophoresis gels were transferred to a membrane (PVDF membrane) according to the following procedure. • (1) The PVDF membrane was immersed in 100% methanol followed by milliQ water, and then moved into the transfer buffer to hydrophilize the PVDF membrane. • (2) After sponge, filter paper, the gels treated by second-dimensional SDS-PAGE, the hydrophilized PVDF membrane, filter paper, and sponge were put in place in this order, the transfer system was energized at a constant voltage of 30 V for one hour.
Immunoblotting of the membrane was carried out using, as a primary antibody, a serum sample from a patient with a soybean allergy or a serum sample from a healthy subject.
Immunoblotting of the membrane was carried out according to the following procedure. • (1) The transferred membrane was shaken in a 5% skim milk/PBST solution (a PBS buffer containing 0.3% Tween 20 nonionic surfactant) at room temperature for one hour. • (2) The membrane was left to stand in a solution of 3% primary antibody serum in 5% skim milk/PBST at room temperature for one hour. • (3) The membrane was washed with a PBST solution (5 min.×3 times). • (4) The membrane was left to stand in a 1:2500 dilution of the secondary antibody, anti-human IgE-HRP (horseradish peroxidase), with a 3% skim milk/PBST solution at room temperature for one hour. • (5) The membrane was washed with a PBST solution (5 min.×3 times). • (6) The membrane was left to stand in Pierce Western Blotting Substrate Plus (produced by Thermo Fisher Scientific) for 5 minutes.
The membrane obtained through the foregoing series of treatments was subjected to fluorescent image scanning on Typhoon 9400 (produced by GE).
The immunoblots obtained with the serum from the soybean-allergic patient were compared with those obtained with the control serum from the healthy subject.

B1: polyadenylate-binding protein 8 isoform X3 (protein)
chain: MAQVLENPTIDAAASGANPSLTTISLYVGDLHHDVNDPQLYDLFNQVAQVVSVRICRDVATQQSLGYGYVNFSNAHDAAKAIDVLNFTPLNGKIIRIMYSIRDPSARKSGAANVFIKNLDKAIDHKALYDTFSAFGNILSCKVATDASGQSKGHGFVQFESEESAQNAIDKLNGMLINDKQVFVGPFLRKQDRESALSGTKFNNVFVKNLLDSMTEADLERIFGEYGAITSAVVMRDVDGKSKGFGFVNFANVDDAAKAVEALNGKNFDGKEWYVGKAQKKSERELELKGQHEQITKETVDKYHGTNLYIKNLDDSVGDEELMELFSEFGTITSCKVMRDPNGISRGSGFVSFSIAEGATRALGEMNGKMVAGKPLYVALAQRKEDRRARLQAQFSQSRPAAITPNVSPRMPLYPLGAPAIGQQFLYGQAAPATIPQHFVPGMRPGGAPNFYVPLVQQGQQGQRPGGHRGSGPMQQLQQPLPLMHQQMLPRGHVYRYPSGSNMQNIQLAGVPGGMVTYGIGQQMPTQALASALANATPEQQRTMLGEALYPLVDKLEHEAAAKVTGMLLEMDQPEVLHLIESPDALKAKVVEAMDVLKKVTQQQSNSPADQLASLSLNDNVES
specific binding to IgE antibodies from soybean-allergic patients: specific binding

B2: V-type proton ATPase subunit B 2 (protein)
chain: MGVAQNIPDAEEGTLEIGMEYRTVSGVAGPLVILDKVKGPKFQEIVNIRLGDGTTRRGQVLEVDGEKAVVQVFEGTSGIDNKFTTVQFTGEVLKTPVSLDMLGRIFNGSGKPIDNGPPILPEAYLDISGSSINPSERTYPEEMIQTGISTIDVMNSIARGQKIPLFSAAGLPHNEIAAQICRQAGLVKRLEKSDNLLEGGGEEDNFAIVFAAMGVNMETAQFFKRDFEENGSMERVTLFLNLANDPTIERIITPRIALTTAEYLAYECGKHVLVILTDMSSYADALREVSAAREEVPGRRGYPGYMYTDLATIYERAGRIEGRKGSITQIPILTMPNDDITHPTPDLTGYITEGQIYIDRQLYNRQIYPPINVLPSLSRLMKSAIGEGMTRKDHSDVSNQLYANYAIGKDVQAMKAVVGEEALSSEDLLYLEFLEKFERKFVAQGAYDTRNIFQSLDLAWTLLRIFPRELLHRIPAKTLDQFYSRDASN
modifications: Glycine max
specific binding to IgE antibodies from soybean-allergic patients: specific binding

B3: succinyl-CoA ligase [ADP-forming] subunit beta, mitochondrial (protein)
chain: MVRGLLNKLVSRSLSVAGKWQHNQLRRLNIHEYQGAELMSKHGVNVPRGVAVSSVEEARKVIKDLFPNENELVVKSQILAGGRGLGTFKSGLKGGVHIVKTDQVEDIAGKMLGQILVTKQTGPQGKIVSKVYLCEKLSLVNEMYFAITLDRTSAGPIIIACSKGGTSIEDLAEKFPDMIIKVPVDVFEGITDEGAAKVVDGLALKVADRNKSIEQVKNLYKLFVDCDCTLLEINPIAETADNQLVAADAKLNFDDNAAYRQKEIFSLRDTTQEDPREVTAAKADLNYIGLDGEIGCMVNGAGLAMATMDIIKLHGGTPANFLDVGGNASENQVVEAFKILTADDKVKAILVNIFGGIMKCDVIASGIVNAAKEVALKVPVVVRLEGTNVDQGKRILKESGMALITAEDLDDAAQKAVKAAYK
modifications: Glycine max
specific binding to IgE antibodies from soybean-allergic patients: specific binding

B4: hypothetical protein GLYMA_10G028300 (protein)
chain: ETEVEEEDPELVTCKHQCQQPQQYTEGDKRVCLQRCDRYHRMKQEREKQIQEETREKKEEESREREEEQQEQHEEQDENPYIFEEDKDFETRVETEGGRIRVLKKFTEKSKLLQGIENFRLAILEARAHTFVSPRHFDSEVVFFNIKGRAVLGLVSESETEKITLEPGDMIHIPAGTPLYIVNRDENDKLFLAMLHIPVSVSTPGKFEEFFGPGGRDPESVLSAFSWNVLQAALQTPKGKLEKLFDQQNEGSIFAISREQVRALAPTKKSSWWPFGGESKPQFNIFSKRPTISNGYGRLTEVGPDDDEKSWLQRLNLMLTFTNITQRSMSTIHYNSHATKIALVIDGRGHLQISCPHMSSRSSHSKHDKSSPSYHRISSDLKPGMVFVVPPGHPFVTIASNKENLLMICFEVNARDNKKFTFAGKDNIVSSLDNVAKELAFNYPSEMVNGVFDRKESFFFPFELPREERGRRADA
specific binding to IgE antibodies from soybean-allergic patients: specific binding

B6: guanosine nucleotide diphosphate dissociation inhibitor 2 (protein)
chain: MDEEYDVIVLGTGLKECILSGLLSVDGLKVLHMDRNDYYGGESTSLNLIQLWKRFRGDDKPPPHLGASRDYNIDMNPKFIMANGNLVRVLIHTDVTKYLSFKAVDGSFVFNKGKVHKVPANDMEALKSPLMGLFEKRRARKFFIYVQNYNESDPKTHEGMDLTRVTTKELIAKYGLDDNTIDFIGHALALHSDDRYLAEPALDTVKRMKLYAESLARFQGGSPYIYPLYGLGELPQAFARLSAVYGGTYMLNKPECKVEFDEEGKVVGVTSEGETAKCKKVVCDPSYLPGKVRKVGRVARAIAIMSHPIPSTDDSHSVQIILPQKQLGRKSDMYLFCCSYTHNVAPKGKFIAFVSTEAETDQPAIELKPGIDLLGPVDEIFFDIYDRYEPVNEPTLDNCFVSTSYDATTHFESTVDDVLNMYTLITGKVIDLSVDLSAASAAEE
modifications: Glycine max
specific binding to IgE antibodies from soybean-allergic patients: specific binding

Further lines, results first:

specific binding to IgE antibodies from soybean-allergic patients: specific binding
B5: protein disulfide isomerase-like protein precursor (protein)
chain: MPKFFHSIFRGTMAGRVSTCFFFVFALSLLLPFQISAEESSEKEFVLTLDHSNFHDTVSKHDFIVVEFYAPWCGHCKKLAPEYEKAASILSSHDPPVVLAKIDANEEKNKDLASQYDVRGYPTIKILRNGGKNVQEYKGPREADGIVDYLKKQSGPASTEIKSADEATAFIGENKVAIVGVFPKFSGEEFDNFSALAEKLRSDYDFGHTLNAKHLPRGESSVSGPVVRLFKPFDELFVDFQDFNVEALEKFVEESSTPVVTVFNNDPSNHPFVAKFFNSPNAKAMLFINFTAEGAESFKSKYREAAEQHKQQGVSFLVGDVESSQGAFQYFGLKEEQVPLIIIQHNDGKKFFKPNLEADHIPTWLKAYKDGNVAPFVKSEPIPEANDEPVKVVVGNSLEDIVFKSGKNVLLEFYAPWCGHCKQLAPILDEVAISYQSDADVVIAKLDATANDIPSETFDVQGYPTVYFRSASGKLSQYEGGRTKEDIIEFIEKNRDKPAQQEQGQDKPAQQEQGQDEQEKGKDEL
modifications: Glycine max
notes: spot also identified as protein disulfide-isomerase

specific binding to IgE antibodies from soybean-allergic patients: specific binding
B7: sucrose binding protein homolog S-64 (protein)
chain: ETEVEEDPELVTCKHQCQQQRQYTESDKRTCLQQCDSMKQEREKQVEEETREKEEEHQEQHEEEQDQNPYVFEEDKDFSTRVETEGGSIRVLKKFTEKSKLLQGNENFRLAILEARAHTFVSPRHFDSEVVLFNIKGRAVLGLVRESETEKITLEPGDMIHIPAGTPLYIVNRDENEKLLLAMLHIPVSTPGKFEEFFGPGGRDPESVLSAFSWNVLQAALQTPKGKLERLFNQQNEGSIFKISRERVRALAPTKKSSWWPFGGESKAQFNIFSKRPTFSNGYGRLTEVGPDDEKSWLQRLNLMLTFTNITQRSMSTIHYNSHATKIALVMDGRGHLQISCPHMSSRSDSKHDKSSPSYHRISADLKPGMVFVVPPGHPFVTIASNKENLLIICFEVNVRDNKKFTFAGKDNIVSSLDNVAKELAFNYPSEMVNGVFERKESLFFPFELPSEERGRRAVA
